Target: M6P receptor (M6PR) (human)
Assay: cell-based or functional assay

intracellular α-gal A activity of Fabry patient fibroblasts after 18 hours incubation with 10 µg/ml enzyme (fold of untreated cells): 116 fold
B1: Agalsidase alfa (Shire, Replagal) (enzyme, UniProt P06280 32-429, looked up)
chain: LDNGLARTPTMGWLHWERFMCNLDCQEEPDSCISEKLFMEMAELMVSEGWKDAGYEYLCIDDCWMAPQRDSEGRLQADPQRFPHGIRQLANYVHSKGLKLGIYADVGNKTCAGFPGSFGYYDIDAQTFADWGVDLLKFDGCYCDSLENLADGYKHMSLALNRTGRSIVYSCEWPLYMWPFQKPNYTEIRQYCNHWRNFADIDDSWKSIKSILDWTSFNQERIVDVAGPGGWNDPDMLVIGNFGLSWNQQVTQMALWAIMAAPLFMSNDLRHISPQAKALLQDKDVIAINQDPLGKQGYQLRQGDNFEVWERPLSGLAWAVAMINRQEIGGPRSYTIAVASLGKGVACNPACFITQLLPVKRKLGFYEWTSRLRSHINPTGTVLLQLENTMQMSLKDLL
modifications: heterogeneous N-glycans, about 24% phosphorylated (M6P) glycans

Reference: US20220380791A1 (ELEVA, published 2022)
